This experiment deals with cynoCTLA-4-his protein (CT4-05227, AcroBio) (cyno) (UniProt G7PL88). Description: SPR, Biacore T200, antibody immobilised, CTLA-4-his injected, 1:1 model.

The term Kd denotes the concentration at which binding is half-saturated. As usually defined, the koff is a measure of how fast the partners let go of each other. The low end stands for a long-lived complex, the high end for a short-lived complex. Usually kon stands for a measure of how fast the partners come together.

B1: CL5′-dPTM′ (antibody, human IgG1, V domains shown)
VH: EVQLVESGGGLIQPGGSLRLSCAVSGFTVSKNYMSWVRQAPGKGLEWVSVVYSGGSKTYADSVKGRFTISRDNSKNTLYLQMNSLRAEDTAVYYCARAVPHSPSSFDIWGQGTMVTVSS
Take B1: the dissociation constant Kd is 0.0591 nM, the off-rate constant (koff) came out at 0.000308 s⁻¹ and the kon was determined as 5.21e+06 M⁻¹ s⁻¹.

B2: CL5′-eA-dPTM′ (antibody, human IgG1, V domains shown)
VH: B1 VH
In the case of B2, the Kd was determined as 0.0243 nM, the koff is 0.00011 s⁻¹ and the kon was 4.55e+06 M⁻¹ s⁻¹.

(Values after US20190202914A1.)
